Assay results: article PMC10215022

Experiments:
[1] = molecular target: SARS-CoV-2 Omicron (B.1.1.529) spike protein RBD, His-tagged (SARS-CoV-2 Omicron (B.1.1.529)) (UniProt P0DTC2); assay: SPR
[2] = molecular target: SARS-CoV-2 Omicron (B.1.1.529) spike protein, plate-bound (MSD V-PLEX) (SARS-CoV-2 Omicron (B.1.1.529)) (UniProt P0DTC2)

Row | Substance | Kd [1] [nM] | IC50 [2] [nM]
1 | casirivimab (REGN10933) (antibody) | 1200 | –
2 | REGEN-COV mAb cocktail (casirivimab and imdevimab at 1:1 molar ratio) | – | 13
